# Test results taken from the Immune Epitope Database (IEDB).
# Tests used:
# HLA-A*02:11 = experiment: IEDB peptide-MHC binding, purified MHC/direct/fluorescence; filed as Kd, often an IC50 or EC50 that approximates it; ≥ and ≤ were set here for values at or beyond the usual limits of such assays
# HLA-A*03:01 = experiment: as above
# HLA-A*02:16 = experiment: as above
# HLA-B*46:01 [1] = experiment: as above
# HLA-B*57:01 [2] = experiment: as above
# HLA-B*18:01 [3] = experiment: as above
# HLA-A*02:01 = experiment: as above
# HLA-B*27:03 [4] = experiment: as above
# HLA-A*02:19 = experiment: as above
# HLA-B*39:01 = experiment: as above
# HLA-A*68:02 = experiment: as above
# HLA-A*02:03 = experiment: as above
# HLA-A*02:12 = experiment: as above
# HLA-B*51:01 [5] = experiment: as above
# HLA-B*15:01 [6] = experiment: as above
# HLA-A*26:01 [7] = experiment: as above
# HLA-A*29:02 = experiment: as above
# HLA-A*24:03 [8] = experiment: as above
# HLA-C*14:02 [9] = experiment: as above; details: source organism: Mycobacterium tuberculosis variant bovis BCG str. Pasteur 1173P2
# HLA-A*01:01 = experiment: IEDB peptide-MHC binding, purified MHC/competitive/fluorescence; filed as Kd, often an IC50 or EC50 that approximates it; ≥ and ≤ were set here for values at or beyond the usual limits of such assays; details: source organism: Escherichia coli F11
# HLA-A*24:03 [10] = experiment: as above; details: source organism: Escherichia coli F11
# HLA-B*15:01 [11] = experiment: as above; details: source organism: Escherichia coli F11
# HLA-A*26:01 [12] = experiment: as above
# HLA-C*07:02 = experiment: IEDB peptide-MHC binding, purified MHC/direct/fluorescence; filed as Kd, often an IC50 or EC50 that approximates it; ≥ and ≤ were set here for values at or beyond the usual limits of such assays
# HLA-C*06:02 = experiment: as above; details: source organism: Escherichia coli F11
# HLA-A*69:01 [13] = experiment: as above; details: source organism: Bacillus cereus G9842
# HLA-B*57:01 [14] = experiment: IEDB peptide-MHC binding, purified MHC/competitive/fluorescence; filed as Kd, often an IC50 or EC50 that approximates it; ≥ and ≤ were set here for values at or beyond the usual limits of such assays; details: source organism: Orthohantavirus andesense
# HLA-B*18:01 [15] = experiment: as above; details: source organism: Orthohantavirus andesense
# HLA-B*27:03 [16] = experiment: as above
# HLA-A*69:01 [17] = experiment: as above; details: source organism: Orthohantavirus andesense
# HLA-B*15:17 = experiment: as above
# HLA-B*51:01 [18] = experiment: as above; details: source organism: Orthohantavirus andesense
# HLA-C*03:03 = experiment: IEDB peptide-MHC binding, purified MHC/direct/fluorescence; filed as Kd, often an IC50 or EC50 that approximates it; ≥ and ≤ were set here for values at or beyond the usual limits of such assays
# HLA-B*83:01 = experiment: IEDB peptide-MHC binding, purified MHC/competitive/fluorescence; filed as Kd, often an IC50 or EC50 that approximates it; ≥ and ≤ were set here for values at or beyond the usual limits of such assays
# HLA-C*14:02 [19] = experiment: as above; details: source organism: Rattus norvegicus
# HLA-B*15:42 = experiment: as above
# HLA-B*45:06 = experiment: as above
# HLA-B*07:02 = experiment: IEDB peptide-MHC binding, purified MHC/direct/fluorescence; filed as Kd, often an IC50 or EC50 that approximates it; ≥ and ≤ were set here for values at or beyond the usual limits of such assays; details: source organism: Mus musculus
# HLA-C*12:03 = experiment: as above; details: source organism: Rattus norvegicus
# HLA-B*46:01 [20] = experiment: IEDB peptide-MHC binding, purified MHC/competitive/fluorescence; filed as Kd, often an IC50 or EC50 that approximates it; ≥ and ≤ were set here for values at or beyond the usual limits of such assays; details: source organism: Mycobacterium tuberculosis str. Haarlem
# HLA-C*05:01 = experiment: IEDB peptide-MHC binding, purified MHC/direct/fluorescence; filed as Kd, often an IC50 or EC50 that approximates it; ≥ and ≤ were set here for values at or beyond the usual limits of such assays; details: source organism: Mycobacterium tuberculosis str. Haarlem
# [21] = source organism: Mycobacterium tuberculosis str. Haarlem
# [22] = source organism: Rickettsia bellii RML369-C
# [23] = source organism: Escherichia coli F11
# [24] = source organism: Bacillus cereus G9842
# [25] = source organism: Entamoeba histolytica HM-1:IMSS
# [26] = source organism: Orthohantavirus andesense
# [27] = source organism: Rattus norvegicus
sequence,measurement,setting,value
LPVEYLQVP,Kd,HLA-A*02:11; [21],≥ 20 µM
same,Kd,HLA-A*03:01; [21],≥ 20 µM
same,Kd,HLA-A*02:16; [21],≥ 20 µM
same,Kd,HLA-B*46:01 [1]; [21],≥ 20 µM
same,Kd,HLA-B*57:01 [2]; [21],≥ 20 µM
same,Kd,HLA-B*18:01 [3]; [21],≥ 20 µM
same,Kd,HLA-A*02:01; [21],≥ 20 µM
same,Kd,HLA-B*27:03 [4]; [21],≥ 20 µM
same,Kd,HLA-A*02:19; [21],≥ 20 µM
same,Kd,HLA-B*39:01; [21],≥ 20 µM
same,Kd,HLA-A*68:02; [21],≥ 20 µM
same,Kd,HLA-A*02:03; [21],≥ 20 µM
same,Kd,HLA-A*02:12; [21],≥ 20 µM
same,Kd,HLA-B*51:01 [5]; [21],≥ 20 µM
same,Kd,HLA-B*15:01 [6]; [21],≥ 20 µM
same,Kd,HLA-A*26:01 [7]; [21],≥ 20 µM
NPLEIYQEI,Kd,HLA-A*02:11; [22],≥ 20 µM
same,Kd,HLA-A*03:01; [22],≥ 20 µM
same,Kd,HLA-A*02:16; [22],≥ 20 µM
same,Kd,HLA-B*46:01 [1]; [22],≥ 20 µM
same,Kd,HLA-B*57:01 [2]; [22],≥ 20 µM
same,Kd,HLA-B*18:01 [3]; [22],≥ 20 µM
same,Kd,HLA-A*02:01; [22],≥ 20 µM
same,Kd,HLA-B*27:03 [4]; [22],≥ 20 µM
same,Kd,HLA-A*02:19; [22],≥ 20 µM
same,Kd,HLA-B*39:01; [22],≥ 20 µM
same,Kd,HLA-A*02:03; [22],≥ 20 µM
same,Kd,HLA-A*02:12; [22],≥ 20 µM
same,Kd,HLA-A*29:02; [22],≥ 20 µM
same,Kd,HLA-A*24:03 [8]; [22],≥ 20 µM
same,Kd,HLA-B*51:01 [5]; [22],0.132 µM
same,Kd,HLA-B*15:01 [6]; [22],≥ 20 µM
same,Kd,HLA-A*26:01 [7]; [22],≥ 20 µM
AARIAGRHM,Kd,HLA-C*14:02 [9],0.654 µM
YTLNNGGAF,Kd,HLA-A*01:01,≥ 20 µM
same,Kd,HLA-A*24:03 [10],0.0151 µM
same,Kd,HLA-B*15:01 [11],0.0594 µM
same,Kd,HLA-A*26:01 [12]; [23],0.0927 µM
same,Kd,HLA-C*07:02; [23],0.991 µM
same,Kd,HLA-C*06:02,≥ 20 µM
TQIPRQMVL,Kd,HLA-A*02:11; [24],≥ 20 µM
same,Kd,HLA-A*03:01; [24],≥ 20 µM
same,Kd,HLA-A*02:16; [24],≥ 20 µM
same,Kd,HLA-B*46:01 [1]; [24],≥ 20 µM
same,Kd,HLA-B*57:01 [2]; [24],≥ 20 µM
same,Kd,HLA-B*18:01 [3]; [24],≥ 20 µM
same,Kd,HLA-A*02:01; [24],≥ 20 µM
same,Kd,HLA-B*27:03 [4]; [24],≥ 20 µM
same,Kd,HLA-A*02:19; [24],≥ 20 µM
same,Kd,HLA-A*69:01 [13],≥ 20 µM
same,Kd,HLA-A*68:02; [24],≥ 20 µM
same,Kd,HLA-A*02:12; [24],≥ 20 µM
same,Kd,HLA-A*29:02; [24],≥ 20 µM
same,Kd,HLA-A*24:03 [8]; [24],≥ 20 µM
same,Kd,HLA-A*26:01 [7]; [24],≥ 20 µM
VKINIFPLY,Kd,HLA-A*03:01; [25],≥ 20 µM
same,Kd,HLA-A*02:16; [25],≥ 20 µM
same,Kd,HLA-B*46:01 [1]; [25],≥ 20 µM
same,Kd,HLA-B*57:01 [2]; [25],≥ 20 µM
same,Kd,HLA-A*02:01; [25],≥ 20 µM
same,Kd,HLA-B*27:03 [4]; [25],≥ 20 µM
same,Kd,HLA-A*02:19; [25],≥ 20 µM
same,Kd,HLA-B*39:01; [25],≥ 20 µM
same,Kd,HLA-A*68:02; [25],≥ 20 µM
same,Kd,HLA-A*02:03; [25],≥ 20 µM
same,Kd,HLA-A*02:12; [25],≥ 20 µM
same,Kd,HLA-B*51:01 [5]; [25],≥ 20 µM
same,Kd,HLA-A*26:01 [7]; [25],≥ 20 µM
YLIPSVTSL,Kd,HLA-B*57:01 [14],≥ 20 µM
same,Kd,HLA-B*18:01 [15],≥ 20 µM
same,Kd,HLA-B*27:03 [16]; [26],≥ 20 µM
same,Kd,HLA-A*69:01 [17],≥ 20 µM
same,Kd,HLA-B*15:17; [26],≥ 20 µM
same,Kd,HLA-B*51:01 [18],≥ 20 µM
same,Kd,HLA-A*26:01 [12]; [26],≥ 20 µM
same,Kd,HLA-A*03:01; [26],≥ 20 µM
same,Kd,HLA-A*02:01; [26],0.0018 µM
same,Kd,HLA-A*02:19; [26],≥ 20 µM
same,Kd,HLA-C*03:03; [26],≤ 0.001 µM
same,Kd,HLA-A*68:02; [26],≥ 20 µM
same,Kd,HLA-A*02:12; [26],≥ 20 µM
same,Kd,HLA-A*29:02; [26],≥ 20 µM
same,Kd,HLA-A*24:03 [8]; [26],≥ 20 µM
FLRKNQRAL,Kd,HLA-B*83:01; [27],≥ 5 µM
same,Kd,HLA-C*14:02 [19],0.0129 µM
same,Kd,HLA-B*27:03 [16]; [27],≥ 20 µM
same,Kd,HLA-B*15:17; [27],≥ 20 µM
same,Kd,HLA-B*15:42; [27],≥ 5 µM
same,Kd,HLA-B*45:06; [27],≥ 5 µM
same,Kd,HLA-C*03:03; [27],0.052 µM
same,Kd,HLA-B*07:02,0.0009 µM
same,Kd,HLA-C*12:03,0.383 µM
YAREAGIAM,Kd,HLA-B*83:01; [21],≥ 5 µM
same,Kd,HLA-B*46:01 [20],≥ 20 µM
same,Kd,HLA-B*15:42; [21],≥ 5 µM
same,Kd,HLA-B*45:06; [21],≥ 5 µM
same,Kd,HLA-C*05:01,≥ 20 µM
same,Kd,HLA-C*03:03; [21],≥ 20 µM
YRHKNYYAL,Kd,HLA-C*07:02; source organism: Vaccinia virus,0.057 µM
